In the experiment the target is T1, uncleavable form of transmembrane TNF-α (deletion mutant, amino acids +1 through +12 deleted) expressed on … (UniProt P01375 1-233).
T1 construct: whole, on cells; The deletion of +1 to +12 cannot be written as substitutions, so it is described under detail; also called deletion mutant transmembrane TNF-α resistant to TACE-mediated cleavage
Nature of the experiment: flow cytometry saturation binding on transmembrane TNF-α-transfected NS0 cells. How it is done: Transmembrane TNF-α-transfected NS0 cells were incubated with serial log dilutions of m357-IgG (∘) or h357-IgG antibodies for 1 hr at 4° C. The cells were washed and incubated with Alexa Fluor 488 goat anti-mouse IgG (H+L) for m357-IgG and Alexa Fluor 647 goat anti-human IgG (H+L) for h357-IgG, respectively for 1 hr at 4° C. The cell were then washed and analyzed by a FACSCalibur flow cytometer; and
Transmembrane TNF-α transfected NS0 cells were incubated with serial log dilutions of m357 IgG and h357 IgG for 1 hour at 4° C. in phosphate buffered saline (PBS) containing 2% of a fetal bovine serum (fluorescence-activated cell sorting [FACS] buffer). Cells were washed with a FACS buffer 3 times and were then stained with an Alexa Fluor 488 goat anti-mouse IgG (H+L) for m357 IgG and an Alexa Fluor 647 goat anti-human IgG (H+L) for h357 IgG, respectively for 1 hour at 4° C. Fluorescence intensities were measured using a FACSCalibur flow cytometer (Becton Dickinson, San Jose, Calif.).
TNF-α exists as a membrane associated precursor (transmembrane TNF-α) from which a mature soluble form is released by proteolytic cleavage mediated by the TNF-α converting enzyme (TACE). […]

This note sets out measurements from patent publication US20120100132A1 (INDUSTRIAL TECHNOLOGY RESEARCH INSTITUTE, published 2012).

B1: m357 IgG (murine anti-human TNF-α monoclonal antibody from hybridoma 357-104-4, ECACC No. 92030603) (antibody, V domains shown)
VH: VKLQESGGGWVQPGGSMKLSCIASGFTFSNYWMNWVRQSPEKGLEWVAEVRLQSDNFTTHYAESVKGRFTISRDDSKSGVYLQMNNLGAEDTGIYYCTPFAYWGQGTTVTVSS
VL: EIVLTQSPPITSASPGEKVTMTCSASSSVSFMYWYQQKPGSSPRLLIYDASILASGVPVRFSGSGSGTSYSLTISRMEAEDVATYYCQQWSDYSPRTFGGGTKLEIK
notes: Whole murine IgG; also called m35-IgG
As usually defined, the Kd is the constant that tells how readily two partners part at equilibrium. Molecule B1 gave a Kd of 12 nM.
